Assay results as given in patent publication US20250197496A1 (EVOLVELMMUNE THERAPEUTICS, published 2025).

T1: Human ULBP2 (recombinant) (human, UniProt Q9BZM5 26-217)
T1 construct: bought (R&D Systems) as ULBP2-Fc or ULBP2-His; also called recombinant ULBP2
T1 sequence: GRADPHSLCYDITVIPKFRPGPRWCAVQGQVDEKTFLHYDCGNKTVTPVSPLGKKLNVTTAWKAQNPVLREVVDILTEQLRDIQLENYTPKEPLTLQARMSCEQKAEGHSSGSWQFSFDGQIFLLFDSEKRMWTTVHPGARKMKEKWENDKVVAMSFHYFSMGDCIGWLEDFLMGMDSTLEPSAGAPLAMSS


Experiments:
[1] = target: T2, human CD3 epsilon (recombinant, plate-coated) (human, UniProt P07766 23-126); experiment: sandwich ELISA, plate coated with CD3ε, luminescence (RLU)
T2 construct: also called CD3ε; Hu CD3 epsilon

[2] = target: T1, Human ULBP2 (recombinant); experiment: sandwich ELISA, plate coated with antigen (legend paragraph 82 names no antigen; ULBP2 taken as the antigen of this antibody's target arm), luminescence (RLU)
[3] = target: T3, human CD3 epsilon/delta heterodimer, biotin labeled (human, UniProt P04234 22-105, biotin labeled); experiment: SPR, biotinylated CD3e/d on SA chip;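 further: analytes injected over immobilized CD3 heterodimer, association 60-120 s and dissociation 120-420 s, rate and affinity constants obtained by fitting sensorgrams to a 1:1 binding model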
T3 construct: bought (Acro Biosystems); also called Human CD3e/d

[4] = target: T4, cynomolgus CD3 epsilon/delta heterodimer, biotin labeled (cynomolgus, UniProt Q95LI8 22-105, biotin labeled); experiment: SPR, biotinylated CD3e/d on SA chip;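 further: analytes injected over immobilized CD3 heterodimer, association 60-120 s and dissociation 120-420 s, rate and affinity constants obtained by fitting sensorgrams to a 1:1 binding model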
T4 construct: bought (Acro Biosystems); also called Cyno CD3e/d
T4 sequence (chain, as listed by the source mutant, chain 1 of 2): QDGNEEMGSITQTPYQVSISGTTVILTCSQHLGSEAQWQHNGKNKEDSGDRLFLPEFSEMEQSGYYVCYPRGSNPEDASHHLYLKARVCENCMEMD
T4 sequence (Q95LI8 22-105, stated change not applied, chain 2 of 2): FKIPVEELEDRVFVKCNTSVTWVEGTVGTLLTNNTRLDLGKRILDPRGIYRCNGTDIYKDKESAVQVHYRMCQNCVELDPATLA

EGFR = EGFR (UniProt P00533 25-645, limits assumed); experiment: sandwich ELISA, plate coated with antigen (legend paragraph 82 names no antigen; EGFR taken as the antigen of the cetuximab arm), luminescence (RLU)

Row | Binder | EC50 (read off the curve) [1] [µg/mL] | EC50 (read off the curve) [2] [µg/mL] | Kd [3] [nM] | koff [3] [s⁻¹] | kon [3] [M⁻¹ s⁻¹] | Kd [4] [nM] | koff [4] [s⁻¹] | kon [4] [M⁻¹ s⁻¹] | EC50 (read off the curve) (EGFR) [µg/mL]
1 | EIP0504 (bispecific antibody, V domains shown, also called ULBP2(A06)-SP34; EV104.2:CD3.1) VH 1: EVQLLESGGGLVQPGGSLKLSCAASGFTFNTYAMNWVRKAPGKGLEWVARIRSKYNNYATYYADSVKDRFTISRDDSKNTAYLQMNNLKTEDTAVYYCVRHGNFGNSYVSWFAYWGQGTLVTVSS VL 1: ELVVTQEPSLTVSPGGTVTLTCRSSTGAVTTSNYANWVQDKPGQAPRGLIGGTNKRAPGTPARFSGSLLGGKAALTLSGVQPEDEAEYYCALWYSNLWVFGGGTKLTVL VH 2: EVQLVQSGAEVKKPGESLKISCKGSGYAFSTSWMNWVRQMPGKGLEWMGRIYPGDGDTNYNGNFKGQVTISADKSISTAYLQWSSLKASDTAMYYCARGGELRLEAMDSWGQGTLVTVSS VL 2: EIVMTQSPATLSLSPGERITLSCSASSSIHSNYLHWYQQKPGQAPRLLIYRTSNLASGIPARFSGSGSGTDFTLTISSLQPEDFAVYYCQQGFSIPFTFGQGTKLEIK | ~0.4 | ~0.6 | – | – | – | – | – | – | –
2 | ULBP2xCD3 bispecific CD58 fusion containing CD3 variant CD3-01 (bispecific antibody, V domains shown) VH: EVQLLESGGGLVQPGGSLKLSCAASGFTFNTYAMNWVRKAPGKGLEWVARIRSKYNNYATYYADSVKDRFTISRDDSKNTAYLQMNNLKTEDTAVYYCVRHGNFGNSYVSWFAYWGQGTLVTVSS VL: ELVVTQEPSLTVSPGGTVTLTCRSSTGAVTTSNYANWVQDKPGQAPRGLIGGTNKRAPGTPARFSGSLLGGKAALTLSGVQPEDEAEYYCALWYSNLWVFGGGTKLTVL | – | – | 4.7 | 0.00819 | 1.76e+06 | 3.2 | 0.00515 | 1.6e+06 | –
3 | ULBP2xCD3 bispecific CD58 fusion containing CD3 variant CD3-A5 (bispecific antibody, V domains shown) VH: EVQLLESGGGLVQPGGSLKLSCAASGFTFNTYAMNWVRKAPGKGLEWVARIRSKYNNYATYYADSVKDRFTISRDDSKNTAYLQMNNLKTEDTAVYYCVRHGNFGDDYVSWFAYWGQGTLVTVSS VL: ELVVTQEPSLTVSPGGTVTLTCRSSTGAVTTSNYANWVQDKPGQAPRGLIGGTNKRAPGTPARFSGSLLGGKAALTLSGVQPEDEAEYYCALWYSQLWVFGGGTKLTVL | – | – | 354 | 0.0245 | 69200 | 368 | 0.0337 | 91700 | –
4 | ULBP2xCD3 bispecific CD58 fusion containing CD3 variant CD3-A9 (bispecific antibody, V domains shown) VH: EVQLLESGGGLVQPGGSLKLSCAASGFTFNTYAMNWVRKAPGKGLEWVARIRSKYNNYATYYADSVKDRFTISRDDSKNTAYLQMNNLKTEDTAVYYCVRHGSFGNSYVSWFAYWGQGTLVTVSS VL: ELVVTQEPSLTVSPGGTVTLTCRSSTGAVTTSNYANWVQDKPGQAPRGLIGGTNKRAPGTPARFSGSLLGGKAALTLSGVQPEDEAEYYCALWYSQLWVFGGGTKLTVL | – | – | 155 | 0.101 | 654000 | 212 | 0.0718 | 338000 | –
5 | ULBP2xCD3 bispecific CD58 fusion containing CD3 variant CD3-A8 (bispecific antibody, V domains shown) VH: EVQLLESGGGLVQPGGSLKLSCAASGFTFNTYAMNWVRKAPGKGLEWVAKIRSKYNNYATYYADSVKDRFTISRDDSKNTAYLQMNNLKTEDTAVYYCVRHGNFGDSYVSWFAYWGQGTLVTVSS VL: ELVVTQEPSLTVSPGGTVTLTCRSSTGAVTTSNYANWVQDKPGQAPRGLIGGTNKRAPGTPARFSGSLLGGKAALTLSGVQPEDEAEYYCALWYSQLWVFGGGTKLTVL | – | – | 147 | 0.0635 | 432000 | 137 | 0.0614 | 448000 | –
6 | ULBP2xCD3 bispecific CD58 fusion containing CD3 variant CD3-A2 (bispecific antibody, V domains shown) VH: EVQLLESGGGLVQPGGSLKLSCAASGFTFNTYAMNWVRKAPGKGLEWVARIRSKYNNYATYYADSVKDRFTISRDDSKNTAYLQMNNLKTEDTAVYYCVRHGNFGNSYVSWFAYWGQGTLVTVSS VL: ELVVTQEPSLTVSPGGTVTLTCRSSTGAVTTSNYANWVQDKPGQAPRGLIGDTNKRAPGTPARFSGSLLGGKAALTLSGVQPEDEAEYYCALWYSNLWVFGGGTKLTVL | – | – | 102 | 0.0263 | 257000 | 89 | 0.0227 | 256000 | –
7 | ULBP2xCD3 bispecific CD58 fusion containing CD3 variant CD3-A6 (bispecific antibody, V domains shown) VH: EVQLLESGGGLVQPGGSLKLSCAASGFTFNDYAMNWVRKAPGKGLEWVARIRSKYNNYATYYADSVKDRFTISRDDSKNTAYLQMNNLKTEDTAVYYCVRHGNFGNSYVSWFAYWGQGTLVTVSS VL: ELVVTQEPSLTVSPGGTVTLTCRSSTGAVTTSNYANWVQDKPGQAPRGLIGGTNKRAPGTPARFSGSLLGGKAALTLSGVQPEDEAEYYCALWYSNLWVFGGGTKLTVL | – | – | 75 | 0.0479 | 640000 | 75 | 0.0418 | 558000 | –
8 | EIP0373 (bispecific antibody, IgG1 bispecific, pairing set D; also called EGFR(Cetuximab)-SP34; V373) heavy 1: EVQLLESGGGLVQPGGSLKLSCAASGFTFNTYAMNWVRKAPGKGLEWVARIRSKYNNYATYYADSVKDRFTISRDDSKNTAYLQMNNLKTEDTAVYYCVRHGNFGNSYVSWFAYWGQGTLVTVSSASTKGPSVFPLAPSSKSTSGGTAALGCLVKDYFPEPVTVSWNSGALTSGVHTFPACLQSSGLYSLSSVVTVPSSSLGTQTYICNVNHKPSNTKVDKKVEPKSSDKTHTCPPCPAPEAAGAPSVFLFPPKPKDTLMISRTPEVTCVVVDVSHEDPEVKFNWYVDGVEVHNAKTKPREEQYNSTYRVVSVLTVLHQDWLNGKEYKCKVSNKALPAPIEKTISKAKGQPREPQVCTLPPSREEMTKNQVSLSCAVKGFYPSDIAVEWESNGQPENNYKTTPPVLDSDGSFFLVSKLTVDKSRWQQGNVFSCSVMHEALHNHYTQKSLSLSPG light 1: ELVVTQEPSLTVSPGGTVTLTCRSSTGAVTTSNYANWVQDKPGQAPRGLIGGTNKRAPGTPARFSGSLLGGKAALTLSGVQPEDEAEYYCALWYSNLWVFGGGTKLTVLGQPKANPTVTLFPPSSEELQANKADLVCLISDFYPGAVTVAWKADGSPVKAGVETCKPSKQSNNKYAASSYLSLTPEQWKSHRSYSCQVTHEGSTVEKTVAPTESS heavy 2: not shown light 2: not shown | ~0.3 | – | – | – | – | – | – | – | ~0.3
9 | EIP0506 (bispecific antibody, human IgG1, kappa, lambda, IgG1 bispecific, pairing set D; also called BCMA(Belantamab)-SP34; V506) heavy 1: EVQLLESGGGLVQPGGSLKLSCAASGFTFNTYAMNWVRKAPGKGLEWVARIRSKYNNYATYYADSVKDRFTISRDDSKNTAYLQMNNLKTEDTAVYYCVRHGNFGNSYVSWFAYWGQGTLVTVSSASTKGPSVFPLAPSSKSTSGGTAALGCLVKDYFPEPVTVSWNSGALTSGVHTFPACLQSSGLYSLSSVVTVPSSSLGTQTYICNVNHKPSNTKVDKKVEPKSSDKTHTCPPCPAPEAAGAPSVFLFPPKPKDTLMISRTPEVTCVVVDVSHEDPEVKFNWYVDGVEVHNAKTKPREEQYNSTYRVVSVLTVLHQDWLNGKEYKCKVSNKALPAPIEKTISKAKGQPREPQVCTLPPSREEMTKNQVSLSCAVKGFYPSDIAVEWESNGQPENNYKTTPPVLDSDGSFFLVSKLTVDKSRWQQGNVFSCSVMHEALHNHYTQKSLSLSPG light 1: ELVVTQEPSLTVSPGGTVTLTCRSSTGAVTTSNYANWVQDKPGQAPRGLIGGTNKRAPGTPARFSGSLLGGKAALTLSGVQPEDEAEYYCALWYSNLWVFGGGTKLTVLGQPKANPTVTLFPPSSEELQANKADLVCLISDFYPGAVTVAWKADGSPVKAGVETCKPSKQSNNKYAASSYLSLTPEQWKSHRSYSCQVTHEGSTVEKTVAPTESS heavy 2: QVQLVQSGAEVKKPGSSVKVSCKASGGTFSNYWMHWVRDAPGQGLEWMGATYRGHSDTYYNQKFKGRVTITADKSTSTAYMELSSLRSEDTAVYYCARGAIYDGYDVLDNWGQGTLVTVSSASTKGPSVFPLAPSSKSTSGGTAALGCLVDDYFPEPVTVSWNSGALTSGVHTFPAVLQSSGLYSLSSVVTVPSSSLGTQTYICNVNHKPSNTKVDKKVEPKSCDKTHTCPPCPAPEAAGAPSVFLFPPKPKDTLMISRTPEVTCVVVDVSHEDPEVKFNWYVDGVEVHNAKTKPREEQYNSTYRVVSVLTVLHQDWLNGKEYKCKVSNKALPAPIEKTISKAKGQPREPQVYTLPPCREEMTKNQVSLWCLVKGFYPSDIAVEWESNGQPENNYKTTPPVLDSDGSFFLYSKLTVDKSRWQQGNVFSCSVMHEALHNHYTQKSLSLSPG light 2: not shown | ~0.5 | – | – | – | – | – | – | – | –
